Target: von Willebrand factor (vWf) (Homo sapiens, UniProt P04275)
Test: Stabilisation of vWf by nanofiltered albumin: freeze-drying and dry heating at 80° C. for 72 hours
Type: physicochemical
Conditions: preliminary tests: vWf solution with glycine and arginine, no albumin, dry heating 80° C.
Experimental: The power of the nanofiltered albumin to stabilise von Willebrand factor (vWf) was assessed using dry heating tests of vWf at 80° C. for 72 hours.
These solutions are then submitted to freeze-drying (45±3 hours) and dry heating as defined above. After heating, the addition of purified water for injection (PWI) to the dry residues reconstitutes solutions A11-A12. The following parameters are analysed: appearance of the solution, dissolution time, activity of vWf and multimeric profile, as measured by electrophoresis.

- activity of vWf (vWf:Ag) compared to the non-heated vWf: > 82%
Substance: vWf: von Willebrand factor solution stabilised with glycine and arginine, without albumin
- multimeric profile: not maintained

— patent publication US10562957B2, “Albumin-purification method comprising a nanofiltration step, solution, and composition for therapeutic use containing the same” (LABORATOIRE FRANCAIS DU FRACTIONNEMENT ET DES …, priority 2004, dated 2020)
